target: human trkC receptor protein (human, UniProt Q16288 32-839); assay: cell-based or functional assay
Sequence (Q16288 32-839): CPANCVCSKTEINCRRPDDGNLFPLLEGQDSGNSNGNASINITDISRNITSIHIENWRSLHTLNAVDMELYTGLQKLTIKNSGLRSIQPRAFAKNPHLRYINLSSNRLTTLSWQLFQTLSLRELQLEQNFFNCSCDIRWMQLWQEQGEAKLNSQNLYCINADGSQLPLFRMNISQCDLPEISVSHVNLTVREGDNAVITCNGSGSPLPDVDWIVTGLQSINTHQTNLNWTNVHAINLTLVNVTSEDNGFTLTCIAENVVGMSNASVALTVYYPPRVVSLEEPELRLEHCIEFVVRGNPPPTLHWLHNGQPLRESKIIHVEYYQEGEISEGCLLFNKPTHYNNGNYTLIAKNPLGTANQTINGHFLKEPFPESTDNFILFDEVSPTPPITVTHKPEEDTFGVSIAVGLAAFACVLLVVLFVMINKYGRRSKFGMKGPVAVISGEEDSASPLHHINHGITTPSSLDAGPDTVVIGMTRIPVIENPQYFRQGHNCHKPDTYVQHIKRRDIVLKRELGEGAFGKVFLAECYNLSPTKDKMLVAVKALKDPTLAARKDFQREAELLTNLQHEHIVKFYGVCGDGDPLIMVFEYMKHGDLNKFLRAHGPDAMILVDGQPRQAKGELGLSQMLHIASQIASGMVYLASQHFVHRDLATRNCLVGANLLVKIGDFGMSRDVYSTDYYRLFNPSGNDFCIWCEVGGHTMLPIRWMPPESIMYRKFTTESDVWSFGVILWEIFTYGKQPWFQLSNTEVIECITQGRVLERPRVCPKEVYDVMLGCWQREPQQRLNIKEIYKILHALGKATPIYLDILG

Percentage of expected activity (%), in vitro mitogenic bioassay [%]	Molecule
328	NT-3(1-117)R61A,K64D (ligand) MYAEHKSHRGEYSVCDSESLWVTDKSSAIDIRGHQVTVLGEIKTGNSPVKQYFYETRCKEAAPVDNGCRGIDDKHWNSQCKTSQTYVRALTSENNKLVGWRWIRIDTSCVCALSRKIG
72	wild type human NT-3 (r-metHuNT-3) (ligand) MYAEHKSHRGEYSVCDSESLWVTDKSSAIDIRGHQVTVLGEIKTGNSPVKQYFYETRCKEARPVKNGCRGIDDKHWNSQCKTSQTYVRALTSENNKLVGWRWIRIDTSCVCALSRKIGRT
524	NT-3(1-119)R61A,K64D (ligand) MYAEHKSHRGEYSVCDSESLWVTDKSSAIDIRGHQVTVLGEIKTGNSPVKQYFYETRCKEAAPVDNGCRGIDDKHWNSQCKTSQTYVRALTSENNKLVGWRWIRIDTSCVCALSRKIGRT

target: trkB receptor; assay: cell-based or functional assay

Bioactivity (mg/mg), MTS mitogenic bioassay [mg/mg]	Molecule
1.24	BDNF, K65D, K73D, K95A, R97A (from UniProt P23560 129-247) (ligand)
0.61	BDNF, P60E, K65D, K73D, K95A (from UniProt P23560 129-247) (ligand)
0.61	Wild type BDNF (from UniProt P23560 129-247) (ligand)
